Data from IntAct's records for PubMed 12084722.

The substances below were run against apoa1_human APOA1 (UniProt P02647).
Sequence of apoa1_human APOA1 (P02647 whole entry): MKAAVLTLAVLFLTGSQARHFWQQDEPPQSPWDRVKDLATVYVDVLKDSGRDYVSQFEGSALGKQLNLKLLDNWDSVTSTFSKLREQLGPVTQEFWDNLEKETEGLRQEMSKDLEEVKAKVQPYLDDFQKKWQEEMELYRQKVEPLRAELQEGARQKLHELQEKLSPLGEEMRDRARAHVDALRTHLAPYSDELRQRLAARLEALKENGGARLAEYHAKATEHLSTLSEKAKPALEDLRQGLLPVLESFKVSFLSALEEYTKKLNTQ

Substance | effect of a mutation on the interaction
Phospholipid-transporting ATPase ABCA1 (Homo sapiens), O95477 R587W | disrupting interaction strength
Phospholipid-transporting ATPase ABCA1 (Homo sapiens), O95477 Q597R | disrupting interaction strength
Phospholipid-transporting ATPase ABCA1 (Homo sapiens), O95477 S1506L | disrupting interaction strength
Phospholipid-transporting ATPase ABCA1 (Homo sapiens), O95477 C1477R | disrupting interaction strength
Phospholipid-transporting ATPase ABCA1 (Homo sapiens), O95477 W590S | increasing interaction strength
